Results on 3 molecules are retold here after paper PMC10491184 (bioRxiv, 2023).

“And” between values parts separate entries of the source, which are not always exact repeats. Equal entries are not always repeated.

For data set [1], the target named is Escherichia coli transcription termination factor ρ K115E (E. coli, UniProt P0AG30 1-419, K115E). The data set is described as follows: SEC.
Data set [2] has as its target Escherichia coli transcription termination factor ρ F89S (E. coli, UniProt P0AG30 1-419, F89S). The data set is described as follows: SEC.
The target in data set [3] is Escherichia coli transcription termination factor ρ, wildtype (E. coli, UniProt P0AG30 1-419). Briefly: cryo-EM structure.
For data set [4], the target named is Rho (transcription termination factor) wt;Rof Y13A (Escherichia coli;Escherichia coli, UniProt P0AG30;P0AFW8 1-419;1-84, |Y13A). Briefly: fluorescence anisotropy.
For data set [5], the target named is Rho (transcription termination factor) wt;Rof D14A (Escherichia coli;Escherichia coli, UniProt P0AG30;P0AFW8 1-419;1-84, |D14A). The data set is described as follows: fluorescence anisotropy.
The target of data set [6] is T1, Rho (transcription termination factor) wt (Escherichia coli, UniProt P0AG30 1-419). The data set is described as follows: fluorescence anisotropy.
Data set [7] has as its target T1, Rho (transcription termination factor) …. Briefly: fluorescence anisotropy. The source holds these as a separate data set.

B1: Escherichia coli Rof, wildtype, tag-less (natural protein, E. coli)
chain: MNDTYQPINCDDYDNLELACQHHLMLTLELKDGEKLQAKASDLVSRKNVEYLVVEAAGETRELRLDKITSFSHPEIGTVVVSES
As for B1, the binding result in data set [1] and in data set [2] was “binds” throughout. Moreover, the “stoichiometry N” value in data set [3] was 5 Rof molecules per ρ hexamer and 4 Rof molecules per ρ pentamer.

B2: dC15 (ssDNA)
DNA: CCCCCCCCCCCCCCC
Regarding B2, the binding result in data set [4] and in data set [5] was “binds” each time. This molecule had a Kd in data set [6] of 1000 nM.

B3: rU12 (ssRNA)
RNA: UUUUUUUUUUUU
Regarding B3, the binding result in data set [7] is “binds”.
